Eight molecules from paper PMC6486541 (Nucleic Acids Research, 2019) can be followed below.

In general, stoichiometry N refers to the number of molecules, sites or subunits per partner or assembly. One may read the Kd as the free concentration of one partner at which half of the binding sites on the other are occupied at equilibrium, for simple one-to-one binding.

The target in data set [1] is T1, OsWRKY45-DBD (OsWRKY45-1) (Oryza sativa Japonica subspecies, UniProt Q5W6D6 104-182).
T1 sequence: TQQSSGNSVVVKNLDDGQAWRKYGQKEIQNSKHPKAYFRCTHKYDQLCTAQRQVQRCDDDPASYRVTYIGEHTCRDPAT
As to the kind of experiment: EMSA. On the technique in general: A gel shift assay detects complexes by their altered migration in electrophoresis.

Data set [2] concerns the molecule itself. As to the kind of experiment: AUC.
The target of data set [3] is T1, OsWRKY45-DBD (OsWRKY45-1). Kind of data set: BLI. (BLI is a label-free optical method that tracks binding on a fibre tip over time.)
Data set [4] has as its target T2, OsWRKY45-DBD L150M (= OsWRKY45-2-DBD) (Oryza sativa Japonica subspecies, UniProt Q5W6D6 104-182, L150M).
T2 sequence: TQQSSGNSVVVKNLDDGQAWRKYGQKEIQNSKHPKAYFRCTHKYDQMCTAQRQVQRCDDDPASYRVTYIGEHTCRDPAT
Kind of data set: BLI.

The target of data set [5] is T3, OsWRKY45-DBD R142A (Oryza sativa Japonica subspecies, UniProt Q5W6D6 104-182, R142A).
T3 sequence: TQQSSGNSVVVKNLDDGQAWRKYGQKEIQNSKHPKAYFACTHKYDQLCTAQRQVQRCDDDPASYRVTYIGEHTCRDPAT
As to the kind of experiment: BLI.

B1: MUT11T (dsDNA)
DNA 1: GATATTTGACTGGA
DNA 2: TCCAGTCAAATATC
Consider B1, for which the binding result in data set [1] is listed as “binds”.

B2: OsWRKY45–DBD (DNA binding domain of OsWRKY45, residues 104–182) (domain or fragment)
chain: TQQSSGNSVVVKNLDDGQAWRKYGQKEIQNSKHPKAYFRCTHKYDQLCTAQRQVQRCDDDPASYRVTYIGEHTCRDPAT
Take B2: the “stoichiometry N” value in data set [2] came to 2.

B3: MUT9C (dsDNA)
DNA 1: GATATTTGCCCGGA
DNA 2: TCCGGGCAAATATC
For the molecule B3, the binding result in data set [1] is reported as “no binding”.

B4: MUT11A (dsDNA)
DNA 1: GATATTTGACAGGA
DNA 2: TCCTGTCAAATATC
With B4, in data set [1], the binding result was “no binding”.

B5: MUT8A (dsDNA)
DNA 1: GATATTTAACCGGA
DNA 2: TCCGGTTAAATATC
For the molecule B5, the binding result in data set [1] is reported as “no binding”.

B6: DNA-1 (W-box DNA) (dsDNA)
DNA 1: GATATTTGACCGGA
DNA 2: TCCGGTCAAATATC
As to B6, the Kd in data set [3] was determined as 4.6 µM; in data set [4] it was 7.7 µM; in data set [5], 13.8 µM.

B7: MUT7C (dsDNA)
DNA 1: GATATTCGACCGGA
DNA 2: TCCGGTCGAATATC
As for B7, the binding result in data set [1] was “no binding”.

B8: MUT10A (dsDNA)
DNA 1: GATATTTGAACGGA
DNA 2: TCCGTTCAAATATC
On to B8, for which, in data set [1], the binding result is reported as “no binding”.
